Test [1] deals with T1, Polypeptide 4 (part of Neisseria gonorrhoeae L7/L12 lacking amino acid residues 102 to 123) (Neisseria gonorrhoeae, UniProt A1KRG5 1-101).
T1 construct: Purified as a tagged fusion protein
T1 sequence: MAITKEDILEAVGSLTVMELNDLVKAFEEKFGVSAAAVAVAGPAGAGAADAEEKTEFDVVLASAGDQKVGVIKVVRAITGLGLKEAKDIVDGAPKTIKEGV
Description: ELISA, polypeptide solid-phased at 2 ug/mL, HRP-labeled anti-IgG. (In general: An ELISA detects its analyte on a solid surface through an enzyme-linked reagent.)

For test [2], the target named is T2, Polypeptide 5 (all of the L7/L12 amino acid sequence of Neisseria meningitidis) (Neisseria meningitidis, UniProt A1KRG5 1-123).
T2 construct: Differs from Neisseria gonorrhoeae L7/L12 only at residue 115 (glutamic acid instead of alanine); Purified as a tagged fusion protein
T2 sequence: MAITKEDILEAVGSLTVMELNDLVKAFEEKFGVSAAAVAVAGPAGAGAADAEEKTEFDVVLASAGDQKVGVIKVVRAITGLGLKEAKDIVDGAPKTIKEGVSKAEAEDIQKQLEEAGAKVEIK
The description is as above.

Test [3] concerns the target T3, Ribosomal protein L7/L12 of Neisseria meningitidis (in extracted sample solution of the bacteria) (Neisseria meningitidis, UniProt A1KRG5 1-123).
T3 construct: also called Neisseria meningitidis L7/L12
T3 sequence: T2 sequence
Description: sandwich ELISA, capture NG3, HRP-labelled NG1, N. meningitidis extract.

Test [4] addresses T4, Polypeptide 1 (all of the amino acid sequence of ribosomal protein L7/L12 of Neisseria gonorrhoeae) (Neisseria gonorrhoeae, UniProt B4RQW1 1-123).
T4 construct: Expressed in E. coli and purified as a fusion protein through a vector-derived tag
T4 sequence: T2 sequence with E115A
Kind of test: ELISA, polypeptide solid-phased at 2 ug/mL, antibody 100 ng/ml; + = absorbance 450 nm 0.1 or greater.

For test [5], the target named is T5, Polypeptide 2 (part of Neisseria gonorrhoeae L7/L12 lacking amino acid residues 1 to 14) (Neisseria gonorrhoeae, UniProt B4RQW1 15-123).
T5 construct: Purified as a tagged fusion protein
The description is as above.

In test [6] the target is T6, Polypeptide 3 (part of Neisseria gonorrhoeae L7/L12 lacking amino acid residues 1 to 63) (Neisseria gonorrhoeae, UniProt B4RQW1 64-123).
T6 construct: Purified as a tagged fusion protein
T6 sequence: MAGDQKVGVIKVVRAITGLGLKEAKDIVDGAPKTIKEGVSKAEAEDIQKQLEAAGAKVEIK
The test is described as above.

Test [7] has as its target T7, Ribosomal protein L7/L12 of Neisseria gonorrhoeae (in extracted sample solution of the bacteria) (Neisseria gonorrhoeae, UniProt B4RQW1 1-123).
T7 construct: also called Neisseria gonorrhoeae L7/L12; Neisseria gonorrhoeae-derived antigen
T7 sequence: T2 sequence with E115A
Kind of test: sandwich ELISA, primary (capture) NG1, HRP-labelled secondary NG3, N. gonorrhoeae extract 1e6 cfu/mL; Absorbance difference A 1.0 or greater.

Changes are numbered by the printed parent chain.

B1: Antibody NG1 (antibody, V domains shown)
VH: EVQLQQSGAELVKPGASVKLSCTASGFNIKDTYIYWVKQRPEQGLEWIGRIDPANGHTKCDPKFQGKATITSDTSSNTAYLQLNSLTSEDTAVYYCSKGYFHYWGQGTTLTVSS
VL: DIQMTQSPSSLSASLGERVSLTCRASQEISGYLSWLQQKPDGTIKRLIYAASTLDSGVPKRFSGSRSGSDYSLTISSLESEDFADYYCQQYDSYPWTFGGGTKLEIK
notes: Mouse hybridoma monoclonal antibody raised against polypeptide 1; detected with an anti-IgG antibody; HRP-labelled or gold-colloid-labelled when used as detection antibody; also called Antibody species A
With B1, the binding result in test [1] is on record as “no binding”; in test [2], “no binding”; in test [3] it was “no binding”; in test [4], “binds”; in test [5], “binds”; in test [6], “binds”. Also, the binding result in test [7] is listed as “binds”.
